Test results taken from article PMC314469, “Protein Interaction Networks by Proteome Peptide Scanning” (PLoS Biology, 2004).
One block for each binder: values may come before it.

Legend:
Assay in all cases: SPOT array
[1] = target: T1, Rvs167 SH3 (RV167_YEAST), P39743
T1 chain: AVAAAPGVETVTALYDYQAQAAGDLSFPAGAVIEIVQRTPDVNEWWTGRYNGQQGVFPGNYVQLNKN

[2] = target: T2, Yfr024 SH3 (LSB3_YEAST), P43603
T2 chain: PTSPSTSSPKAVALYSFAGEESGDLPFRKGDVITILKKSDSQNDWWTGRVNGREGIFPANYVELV

[3] = target: T3, Yhr016c SH3 (YSC84_YEAST), P32793
T3 chain: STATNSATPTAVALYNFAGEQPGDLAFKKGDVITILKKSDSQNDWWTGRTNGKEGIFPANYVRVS

[4] = target: T4, Boi1 SH3 (BOI1_YEAST), P38041
T4 chain: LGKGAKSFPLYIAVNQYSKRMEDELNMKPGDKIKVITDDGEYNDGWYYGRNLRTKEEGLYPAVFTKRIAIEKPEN

[5] = target: T5, Boi2 SH3 (BOI2_YEAST), P39969
T5 chain: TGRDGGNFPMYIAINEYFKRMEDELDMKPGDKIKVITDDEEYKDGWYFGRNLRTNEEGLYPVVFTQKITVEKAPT

- normalised SPOT signal, Boehringer light units (BLU); mean over the file's lines of this peptide [1]: 49.2
- normalised SPOT signal, Boehringer light units (BLU); mean over the file's lines of this peptide [2]: 4690
- normalised SPOT signal, Boehringer light units (BLU); mean over the file's lines of this peptide [3]: 448
- normalised SPOT signal, Boehringer light units (BLU); mean over the file's lines of this peptide [4]: 152
- normalised SPOT signal, Boehringer light units (BLU); mean over the file's lines of this peptide [5]: 16.8
B1: YBR108W 727-740 (peptide)
chain: APTPPAPSRSEKLH

- normalised SPOT signal, Boehringer light units (BLU); mean over the file's lines of this peptide [1]: 2620
- normalised SPOT signal, Boehringer light units (BLU); mean over the file's lines of this peptide [2]: 14600
- normalised SPOT signal, Boehringer light units (BLU); mean over the file's lines of this peptide [3]: 25500
- normalised SPOT signal, Boehringer light units (BLU); mean over the file's lines of this peptide [4]: 113
- normalised SPOT signal, Boehringer light units (BLU); mean over the file's lines of this peptide [5]: 39.4
B2: YGL153W 84-97 (peptide)
chain: AMPPTLPHRDWKDY

- normalised SPOT signal, Boehringer light units (BLU); mean over the file's lines of this peptide [1]: 130
- normalised SPOT signal, Boehringer light units (BLU); mean over the file's lines of this peptide [2]: 854
- normalised SPOT signal, Boehringer light units (BLU); mean over the file's lines of this peptide [3]: 78
- normalised SPOT signal, Boehringer light units (BLU); mean over the file's lines of this peptide [4]: 196
- normalised SPOT signal, Boehringer light units (BLU); mean over the file's lines of this peptide [5]: 105
B3: YBR089C-A 7-20 (peptide)
chain: AKQPKEPKKRTTRR

- normalised SPOT signal, Boehringer light units (BLU); mean over the file's lines of this peptide [1]: 186
- normalised SPOT signal, Boehringer light units (BLU); mean over the file's lines of this peptide [2]: 11200
- normalised SPOT signal, Boehringer light units (BLU); mean over the file's lines of this peptide [3]: 6020
- normalised SPOT signal, Boehringer light units (BLU); mean over the file's lines of this peptide [4]: 10.1
- normalised SPOT signal, Boehringer light units (BLU); mean over the file's lines of this peptide [5]: 23.8
B4: YLR144C 7-20 (peptide)
chain: AIPPPVPNRPGGTT

- normalised SPOT signal, Boehringer light units (BLU); mean over the file's lines of this peptide [1]: 59.8
- normalised SPOT signal, Boehringer light units (BLU); mean over the file's lines of this peptide [2]: 145
- normalised SPOT signal, Boehringer light units (BLU); mean over the file's lines of this peptide [3]: 179
- normalised SPOT signal, Boehringer light units (BLU); mean over the file's lines of this peptide [4]: 132
- normalised SPOT signal, Boehringer light units (BLU); mean over the file's lines of this peptide [5]: 8.2
B5: YNL139C 1465-1478 (peptide)
chain: ALRPTGPDRGDGFD

- normalised SPOT signal, Boehringer light units (BLU); mean over the file's lines of this peptide [1]: 63
- normalised SPOT signal, Boehringer light units (BLU); mean over the file's lines of this peptide [2]: 648
- normalised SPOT signal, Boehringer light units (BLU); mean over the file's lines of this peptide [3]: 125
- normalised SPOT signal, Boehringer light units (BLU); mean over the file's lines of this peptide [4]: 34.6
- normalised SPOT signal, Boehringer light units (BLU); mean over the file's lines of this peptide [5]: 39.3
B6: YMR012W 411-424 (peptide)
chain: AMNPESPTRDQIFL

- normalised SPOT signal, Boehringer light units (BLU); mean over the file's lines of this peptide [1]: 136
- normalised SPOT signal, Boehringer light units (BLU); mean over the file's lines of this peptide [2]: 121
- normalised SPOT signal, Boehringer light units (BLU); mean over the file's lines of this peptide [3]: 123
- normalised SPOT signal, Boehringer light units (BLU); mean over the file's lines of this peptide [4]: 16.7
- normalised SPOT signal, Boehringer light units (BLU); mean over the file's lines of this peptide [5]: 40.5
B7: YHL047C 340-353 (peptide)
chain: ALVPFAPFKLLKDR

- normalised SPOT signal, Boehringer light units (BLU); mean over the file's lines of this peptide [1]: 47.4
- normalised SPOT signal, Boehringer light units (BLU); mean over the file's lines of this peptide [2]: 35.4
- normalised SPOT signal, Boehringer light units (BLU); mean over the file's lines of this peptide [3]: 22.8
- normalised SPOT signal, Boehringer light units (BLU); mean over the file's lines of this peptide [4]: 123
- normalised SPOT signal, Boehringer light units (BLU); mean over the file's lines of this peptide [5]: 68.1
B8: YBL007C 849-862 (peptide)
chain: APAPLDPFKTGGNN

- normalised SPOT signal, Boehringer light units (BLU); mean over the file's lines of this peptide [1]: 52.6
- normalised SPOT signal, Boehringer light units (BLU); mean over the file's lines of this peptide [2]: 1150
- normalised SPOT signal, Boehringer light units (BLU); mean over the file's lines of this peptide [3]: 372
- normalised SPOT signal, Boehringer light units (BLU); mean over the file's lines of this peptide [4]: 217
- normalised SPOT signal, Boehringer light units (BLU); mean over the file's lines of this peptide [5]: 57.8
B9: YBL105C 587-600 (peptide)
chain: APLPPQPRKHDKTP

- normalised SPOT signal, Boehringer light units (BLU); mean over the file's lines of this peptide [1]: 56.6
- normalised SPOT signal, Boehringer light units (BLU); mean over the file's lines of this peptide [2]: 96.8
- normalised SPOT signal, Boehringer light units (BLU); mean over the file's lines of this peptide [3]: 30.2
- normalised SPOT signal, Boehringer light units (BLU); mean over the file's lines of this peptide [4]: 102
- normalised SPOT signal, Boehringer light units (BLU); mean over the file's lines of this peptide [5]: 31.2
B10: YLR070C 92-105 (peptide)
chain: ALEPGIPDRFSPEM

- normalised SPOT signal, Boehringer light units (BLU); mean over the file's lines of this peptide [1]: 448
- normalised SPOT signal, Boehringer light units (BLU); mean over the file's lines of this peptide [2]: 1960
- normalised SPOT signal, Boehringer light units (BLU); mean over the file's lines of this peptide [3]: 917
- normalised SPOT signal, Boehringer light units (BLU); mean over the file's lines of this peptide [4]: 230
- normalised SPOT signal, Boehringer light units (BLU); mean over the file's lines of this peptide [5]: 27.5
B11: YLL018C-A 11-24 (peptide)
chain: ALRPTPPERGSFPL

- normalised SPOT signal, Boehringer light units (BLU); mean over the file's lines of this peptide [1]: 437
- normalised SPOT signal, Boehringer light units (BLU); mean over the file's lines of this peptide [2]: 16800
- normalised SPOT signal, Boehringer light units (BLU); mean over the file's lines of this peptide [3]: 4220
- normalised SPOT signal, Boehringer light units (BLU); mean over the file's lines of this peptide [4]: 322
- normalised SPOT signal, Boehringer light units (BLU); mean over the file's lines of this peptide [5]: 46.6
B12: YHL040C 345-358 (peptide)
chain: ARDPILPYRLVKDR

- normalised SPOT signal, Boehringer light units (BLU); mean over the file's lines of this peptide [1]: 422
- normalised SPOT signal, Boehringer light units (BLU); mean over the file's lines of this peptide [2]: 1860
- normalised SPOT signal, Boehringer light units (BLU); mean over the file's lines of this peptide [3]: 256
- normalised SPOT signal, Boehringer light units (BLU); mean over the file's lines of this peptide [4]: 642
- normalised SPOT signal, Boehringer light units (BLU); mean over the file's lines of this peptide [5]: 884
B13: YNL269W 98-111 (peptide)
chain: AMTPFSPRKSHINN

- normalised SPOT signal, Boehringer light units (BLU); mean over the file's lines of this peptide [1]: 45.1
- normalised SPOT signal, Boehringer light units (BLU); mean over the file's lines of this peptide [2]: 4310
- normalised SPOT signal, Boehringer light units (BLU); mean over the file's lines of this peptide [3]: 229
- normalised SPOT signal, Boehringer light units (BLU); mean over the file's lines of this peptide [4]: 84.8
- normalised SPOT signal, Boehringer light units (BLU); mean over the file's lines of this peptide [5]: 46.2
B14: YCL073C 330-343 (peptide)
chain: AKSPLLPFKLLSDR

- normalised SPOT signal, Boehringer light units (BLU); mean over the file's lines of this peptide [1]: 300
- normalised SPOT signal, Boehringer light units (BLU); mean over the file's lines of this peptide [2]: 2060
- normalised SPOT signal, Boehringer light units (BLU); mean over the file's lines of this peptide [3]: 341
- normalised SPOT signal, Boehringer light units (BLU); mean over the file's lines of this peptide [4]: 247
- normalised SPOT signal, Boehringer light units (BLU); mean over the file's lines of this peptide [5]: 103
B15: YBR060C 65-78 (peptide)
chain: ALKPKTPSKAPRKR

- normalised SPOT signal, Boehringer light units (BLU); mean over the file's lines of this peptide [1]: 39.8
- normalised SPOT signal, Boehringer light units (BLU); mean over the file's lines of this peptide [2]: 6370
- normalised SPOT signal, Boehringer light units (BLU); mean over the file's lines of this peptide [3]: 1230
- normalised SPOT signal, Boehringer light units (BLU); mean over the file's lines of this peptide [4]: 145
- normalised SPOT signal, Boehringer light units (BLU); mean over the file's lines of this peptide [5]: 27.9
B16: YMR047C 1035-1048 (peptide)
chain: ANLPNRPKRGEGIN

- normalised SPOT signal, Boehringer light units (BLU); mean over the file's lines of this peptide [1]: 78.6
- normalised SPOT signal, Boehringer light units (BLU); mean over the file's lines of this peptide [2]: 576
- normalised SPOT signal, Boehringer light units (BLU); mean over the file's lines of this peptide [3]: 112
- normalised SPOT signal, Boehringer light units (BLU); mean over the file's lines of this peptide [4]: 119
- normalised SPOT signal, Boehringer light units (BLU); mean over the file's lines of this peptide [5]: 73.2
B17: YNL064C 104-117 (peptide)
chain: AQRPRGPQRGKDIK
